# Reference: patent US20110189730 (published 2011)
# Experiments:
# [1] = target: T1, Sin Nombre hantavirus nucleocapsid protein (N) (Sin Nombre hantavirus) (UniProt Q89462); assay: filter; details: 5' m7G cap
# T1 sequence: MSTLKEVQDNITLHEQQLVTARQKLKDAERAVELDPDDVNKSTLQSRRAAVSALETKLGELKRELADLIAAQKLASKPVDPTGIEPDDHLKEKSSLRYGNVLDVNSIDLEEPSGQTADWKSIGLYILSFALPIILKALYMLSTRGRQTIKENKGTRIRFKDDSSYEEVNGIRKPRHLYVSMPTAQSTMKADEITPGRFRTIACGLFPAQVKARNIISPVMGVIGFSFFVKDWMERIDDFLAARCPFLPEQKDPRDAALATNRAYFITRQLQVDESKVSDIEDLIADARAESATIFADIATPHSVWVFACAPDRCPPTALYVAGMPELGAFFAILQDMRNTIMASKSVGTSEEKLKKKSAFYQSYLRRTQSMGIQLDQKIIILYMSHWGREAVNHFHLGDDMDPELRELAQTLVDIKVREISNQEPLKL
# [2] = target: T2, Sin Nombre hantavirus nucleocapsid protein (N) (Sin Nombre hantavirus, UniProt Q89462 SEQ:1-428); assay: filter; details: tags: C-terminal octahistidine tag, expressed in E. coli; label: 32P-CTP
# T2 sequence: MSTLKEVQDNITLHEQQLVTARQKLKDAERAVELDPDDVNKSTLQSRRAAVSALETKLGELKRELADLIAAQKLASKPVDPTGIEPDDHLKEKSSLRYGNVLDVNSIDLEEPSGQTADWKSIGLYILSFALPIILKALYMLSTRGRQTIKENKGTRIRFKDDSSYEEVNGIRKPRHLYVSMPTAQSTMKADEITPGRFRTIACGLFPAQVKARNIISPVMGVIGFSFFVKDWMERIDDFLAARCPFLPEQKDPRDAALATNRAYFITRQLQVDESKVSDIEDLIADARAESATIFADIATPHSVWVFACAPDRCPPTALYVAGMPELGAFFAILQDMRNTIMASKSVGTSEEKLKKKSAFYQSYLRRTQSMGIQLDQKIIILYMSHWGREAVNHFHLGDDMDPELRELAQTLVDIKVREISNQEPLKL
Molecule,Kd [1] [nM],Kd [2] [nM]
capped TriEx 5'-terminal decamer,130,
"GUCUCUCCCA (ssRNA, 5' m7G cap) [m7… capped decamer]",,~130
"GUCUCC (ssRNA, 5' m7G cap) [m7GUCUCC capped hexamer]",,125
